T1: mCherry-CAV1^FL (caveolin-1, full length, amino acids 1–178) in cell-free caveolae (UniProt Q03135 1-178)
T1 sequence: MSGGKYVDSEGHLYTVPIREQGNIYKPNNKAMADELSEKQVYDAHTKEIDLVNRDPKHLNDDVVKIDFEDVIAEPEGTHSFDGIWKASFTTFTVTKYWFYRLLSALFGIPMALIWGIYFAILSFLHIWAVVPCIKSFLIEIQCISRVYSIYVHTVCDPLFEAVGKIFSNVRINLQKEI

T2: mCherry-CAV1^Y14-p (CAV1 + ABL1 coexpression) (UniProt Q03135 1-178)
T2 sequence: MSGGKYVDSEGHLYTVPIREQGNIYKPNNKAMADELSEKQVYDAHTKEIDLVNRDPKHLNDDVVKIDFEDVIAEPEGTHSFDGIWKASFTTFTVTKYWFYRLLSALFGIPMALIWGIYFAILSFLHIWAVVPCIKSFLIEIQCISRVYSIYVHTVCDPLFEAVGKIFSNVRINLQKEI


How the values were obtained:
TRAF2 = TRAF2 (UniProt Q12933); assay: two-color single-molecule coincidence; conditions: reference: no ABL1; sites Y14
[1] = molecular target: T1, mCherry-CAV1^FL (caveolin-1, full …); assay: two-color single-molecule fluorescence coincidence
[2] = molecular target: T2, mCherry-CAV1^Y14-p (CAV1 + ABL1 …); assay: two-color single-molecule fluorescence coincidence

| Molecule | other: position of coincidence peak (TRAF2) | coincidence C = mCherry/(GFP+mCherry), Gaussian peak [1] | coincidence C = mCherry/(GFP+mCherry), Gaussian peak [2] | stoichiometry N [2] |
| --- | --- | --- | --- | --- |
| CAV1 (caveolin-1; cell-free and transfected constructs) 1-178 (from UniProt Q03135) untagged ABL1 coexpressed | stronger; reference 0.75 | – | – | – |
| GFP-TRAF2 (TNF receptor–associated factor 2), cell-free (natural protein) MAAASVTPPGSLELLQPGFSKTLLGTKLEAKYLCSACRNVLRRPFQAQCGHRYCSFCLASILSSGPQNCAACVHEGIYEEGISILESSSAFPDNAARREVESLPAVCPSDGCTWKGTLKEYESCHEGRCPLMLTECPACKGLVRLGEKERHLEHECPERSLSCRHCRAPCCGADVKAHHEVCPKFPLTCDGCGKKKIPREKFQDHVKTCGKCRVPCRFHAIGCLETVEGEKQQEHEVQWLREHLAMLLSSVLEAKPLLGDQSHAGSELLQRCESLEKKTATFENIVCVLNREVERVAMTAEACSRQHRLDQDKIEALSSKVQQLERSIGLKDLAMADLEQKVLEMEASTYDGVFIWKISDFARKRQEAVAGRIPAIFSPAFYTSRYGYKMCLRIYLNGDGTGRGTHLSLFFVVMKGPNDALLRWPFNQKVTLMLLDQNNREHVIDAFRPDVTSSSFQRPVNDMNIASGCPLFCPVSKMEAKNSYVRDDAIFIKAIVDLTGL | – | 0.75 | 0.6 | ~1 mCherry-CAV1:GFP-TRAF2 |

From publication PMC5987714 (The Journal of Cell Biology, 2018)
